Reference: patent publication US20030077318A1
Read-outs that look alike come from different tables or passages of the source.

T1: soluble H-2K^b (K^bsol), heterodimer of truncated K^b heavy chain and murine β-2 microglobulin, purified empty from Drosophila cells (murine), P01901
T1 chain 1: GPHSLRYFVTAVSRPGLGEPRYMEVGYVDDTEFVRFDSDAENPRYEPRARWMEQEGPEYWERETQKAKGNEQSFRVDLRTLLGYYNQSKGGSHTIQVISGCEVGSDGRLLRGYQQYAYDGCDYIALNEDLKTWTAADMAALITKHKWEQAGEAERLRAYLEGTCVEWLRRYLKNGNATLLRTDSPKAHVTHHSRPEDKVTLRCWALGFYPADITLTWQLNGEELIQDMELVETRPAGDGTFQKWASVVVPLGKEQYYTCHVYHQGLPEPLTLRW
T1 chain 2: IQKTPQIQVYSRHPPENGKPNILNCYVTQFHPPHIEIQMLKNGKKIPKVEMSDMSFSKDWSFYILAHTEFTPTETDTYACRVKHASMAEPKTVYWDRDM


What was measured:
[1] = molecular target: T1, soluble H-2K^b (K^bsol), heterodimer of …; experiment: competitive RIA against [^125I]VSV-8 on K^bsol, P30 gel filtration, 23° C.
[2] = molecular target: T1, soluble H-2K^b (K^bsol), heterodimer of …
[3] = molecular target: T1, soluble H-2K^b (K^bsol), heterodimer of …

Binder	Kd [1] [nM]	Kd [2] [nM]	half-time of association [3] [min]
DLRGYVYQGL (modifications not checked) [VSV-10N]	390	–	–
LRGYVYQGL (modifications not checked) [VSV-9N]	7.3	–	–
RGYVYQGL (modifications not checked) [VSV-8]	3.7	–	–
RGYVYQGL (modifications not checked) [[^125I]VSV-8]	–	33	5
RGYVYQGLKS (modifications not checked) [VSV-10C]	21	–	–
RGYVYQGLK (modifications not checked) [VSV-9C]	6.9	–	–
